# Assay results reported in US20170247475A1 (Boehringer Ingelheim, published 2017).
# T1: human VEGF-C (human, UniProt P49767 103-227)
# T1 construct: also called hVEGF-C
# T1 sequence (looked up): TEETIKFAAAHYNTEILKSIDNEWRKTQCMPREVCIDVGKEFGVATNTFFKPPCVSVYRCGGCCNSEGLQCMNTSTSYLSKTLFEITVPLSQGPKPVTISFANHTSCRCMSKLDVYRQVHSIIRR
# What was measured:
# [1] = molecular target: T2, recombinant human VEGF165 (human, UniProt P15692-4 27-191); assay: Biacore epitope binning, VEGF165 captured on immobilised VEGFBII23B04
# T2 construct: also called hVEGF165; rhVEGF165
# Protocol: Biacore-based epitope binning experiments are performed to investigate which VEGF binders bind to a similar or overlapping epitope as VEGFBII23B04. To this end, VEGFBII23B04 is immobilized on a CM5 sensor chip. […] Purified VHHs (100 nM) or periplasmic extracts (1/10 diluted) are then injected with a surface contact time of 240 seconds and a flow rate of 10 uL/minute. Between different samples, the surface is regenerated with regeneration buffer (100 mM HCl). Processed curves are evaluated with Biacore T100 Evaluation software.
# human VEGF-C = molecular target: T1, human VEGF-C; assay: binding ELISA on coated VEGFC
# Protocol: Binding to VEGFB, VEGFC, VEGFD and PIGF is assessed via a solid phase binding ELISA. In brief, VEGFB, VEGFC, VEGFD and PIGF (R&D Systems, Minneapolis, Minn., USA) are coated overnight at 4° C. at 1 μg/mL in a 96-well MaxiSorp plate (Nunc, Wiesbaden, Germany). Wells are blocked with a casein solution (1% in PBS). […] As positive controls serial dilutions of the appropriate receptors are taken along and detected with horseradish peroxidase (HRP)-conjugated goat anti-human IgG, Fc specific antibody (Jackson Immuno Research Laboratories Inc., West Grove, Pa., USA) and a subsequent enzymatic reaction in the presence of the substrate TMB (3,3′,5,5′-tetramentylbenzidine) (Pierce, Rockford, Ill., USA).
# [2] = molecular target: T2, recombinant human VEGF165; assay: ProteOn, periplasmic extract 1/10 on hVEGF165 chip
# From the text: One additional variant is constructed in which the potential oxidation site at position M30 (CDR1 region, see FIG. 19 indicated as bold italic residue) is removed by introduction of a M30I mutation.
# T2 sequence (P15692 other isoform, or with tags, fused parts or gaps limits assumed): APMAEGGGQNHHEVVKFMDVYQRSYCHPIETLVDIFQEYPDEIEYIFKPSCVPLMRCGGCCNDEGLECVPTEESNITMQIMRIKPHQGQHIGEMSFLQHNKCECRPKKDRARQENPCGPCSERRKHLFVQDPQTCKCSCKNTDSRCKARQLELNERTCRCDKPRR
Binder,binding result [1],other results
VEGFBII86H09 (VHH) VHH: EVQLVESGGGLVQAGGSLRLSCTASGSAFKSYRMGWFRRTPGKEDEFVASISWTYGSTFYADSVKGRFTMSRDKAKNAGYLQMNSLKPEDTALYYCAAGAQSDRYNIRSYDYWGQGTQVTVSS,binds,
VEGFBII11E05 (VHH) VHH: EVQLVESGGGLVQPGGSLRLSCASSGRLFSFSAMGWFRQAPGKEREFVAAFKWSGSTTYYADYVKGRFTISTDNAKNILFLQMNSLKPEDTAIYYCAVDRFYTGRYYSSDEYDYWGQGTQVTVSS,binds,
VEGFBII41C05 (VHH) VHH: EVQLVESGGGLVQAGGSLRLSCAASGRTFSVYTMGWFRQAPGKEREFVATISRTGDRTSYANSVKGRFTISRENAKNTVYLQMNSLKPEDTAVYSCAAGPIAPSPRPREYYYWGQGTQVTVSS,binds,
"human VEGFR2-Fc chimera (Fc fusion, UniProt P35968 20-764, looked up, not shown: a dimerising Fc or GST, bought (R&D Systems); also called hVEGFR2-Fc; VEGFR2-huFc) ASVGLPSVSLDLPRLSIQKDILTIKANTTLQITCRGQRDLDWLWPNNQSGSEQRVEVTECSDGLFCKTLTIPKVIGNDTGAYKCFYRETDLASVIYVYVQDYRSPFIASVSDQHGVVYITENKNKTVVIPCLGSISNLNVSLCARYPEKRFVPDGNRISWDSKKGFTIPSYMISYAGMVFCEAKINDESYQSIMYIVVVVGYRIYDVVLSPSHGIELSVGEKLVLNCTARTELNVGIDFNWEYPSSKHQHKKLVNRDLKTQSGSEMKKFLSTLTIDGVTRSDQGLYTCAASSGLMTKKNSTFVRVHEKPFVAFGSGMESLVEATVGERVRIPAKYLGYPPPEIKWYKNGIPLESNHTIKAGHVLTIMEVSERDTGNYTVILTNPISKEKQSHVVSLVVYVPPQIGEKSLISPVDSYQYGTTQTLTCTVYAIPPPHHIHWYWQLEEECANEPSQAVSVTNPYPCEEWRSVEDFQGGNKIEVNKNQFALIEGKNKTVSTLVIQAANVSALYKCEAVNKVGRGERVISFHVTRGPEITLQPDMQPTEQESVSLWCTADRSTFENLTWYKLGPQPLPIHVGELPTPVCKNLDTLWKLNATMFSNSTNDILIMELKNASLQDQGDYVCLAQDRKTKKRHCVVRQLTVLERVAPTITGNLENQTTSIGESIEVSCTASGNPPPQIMWFKDNETLVEDSGIVLKDGNRNLTIRRVRKEDEGLYTCQACSVLGCAKVEAFFIIEGAQEKTNLE",,EC50 (read off the curve) (human VEGF-C): ~4 nM
"VEGFBII119G11 (VHH, humanization variant of VEGFBII5B05; tested as periplasmic extract) VHH: EVQLVESGGGLVQPGGSLRLSCAASGIRFMSMAWYRQAPGKQRELVARISSGGTTAYADSVKGRFTISRDNSKNTVYLQMNSLRAEDTAVYYCNTFSSRPNPWGQGTLVTVSS",,Binding level (RU) [2]: 234 RU; koff [2]: 0.0775 s⁻¹
"VEGFBII120E10 (VHH, VEGFBII5B05 with the M30I mutation; tested as periplasmic extract) VHH: EVQLVESGGGLVQPGGSLRLSCVASGIRFISMAWYRQAPGKHRELVARISSGGTTAYVDSVKGRFTISRDNSKNTVYLQMNSLKAEDTAVYYCNTFSSRPNPWGAGTQVTVSS",,Binding level (RU) [2]: 257 RU; koff [2]: 0.0468 s⁻¹

# Second part, led by results:
binding result [1],Binder,other results
binds,VEGFBII11E04 (VHH) VHH: EVQLVESGGGLVQAGGSLRLSCAASGRTFSSYAMGWFRQAPGKEREFVATISQSGYSTYYADSVKGRFTISRDNAKNTVNLQMNSLKPEDTAVYYCAADPFYSYGSPSPYRYWGQGTQVTVSS,
binds,VEGFBII11F12 (VHH) VHH: EVQLVESGGGLVQSGGSLRLSCAASGRSFSSLAMGWFRQVPGKDREFVASISQSGITTSYADSVKSRFTISRDSAKNTVYLQMNLLKPEDTAVYYCATSVFYSTALTRPVDYRYWGQGTQVTVSS,
